Experimental findings from patent publication US6407216 (Genentech, dated 2002) are described below.

The target of assay [1] is T1, Drosophila Smoothened (dSmo), epitope tagged, expressed on transfected cells (Drosophila, UniProt P91682 32-1036).
T1 construct: cDNA described in Alcedo et al; also called dros.smo
T1 sequence: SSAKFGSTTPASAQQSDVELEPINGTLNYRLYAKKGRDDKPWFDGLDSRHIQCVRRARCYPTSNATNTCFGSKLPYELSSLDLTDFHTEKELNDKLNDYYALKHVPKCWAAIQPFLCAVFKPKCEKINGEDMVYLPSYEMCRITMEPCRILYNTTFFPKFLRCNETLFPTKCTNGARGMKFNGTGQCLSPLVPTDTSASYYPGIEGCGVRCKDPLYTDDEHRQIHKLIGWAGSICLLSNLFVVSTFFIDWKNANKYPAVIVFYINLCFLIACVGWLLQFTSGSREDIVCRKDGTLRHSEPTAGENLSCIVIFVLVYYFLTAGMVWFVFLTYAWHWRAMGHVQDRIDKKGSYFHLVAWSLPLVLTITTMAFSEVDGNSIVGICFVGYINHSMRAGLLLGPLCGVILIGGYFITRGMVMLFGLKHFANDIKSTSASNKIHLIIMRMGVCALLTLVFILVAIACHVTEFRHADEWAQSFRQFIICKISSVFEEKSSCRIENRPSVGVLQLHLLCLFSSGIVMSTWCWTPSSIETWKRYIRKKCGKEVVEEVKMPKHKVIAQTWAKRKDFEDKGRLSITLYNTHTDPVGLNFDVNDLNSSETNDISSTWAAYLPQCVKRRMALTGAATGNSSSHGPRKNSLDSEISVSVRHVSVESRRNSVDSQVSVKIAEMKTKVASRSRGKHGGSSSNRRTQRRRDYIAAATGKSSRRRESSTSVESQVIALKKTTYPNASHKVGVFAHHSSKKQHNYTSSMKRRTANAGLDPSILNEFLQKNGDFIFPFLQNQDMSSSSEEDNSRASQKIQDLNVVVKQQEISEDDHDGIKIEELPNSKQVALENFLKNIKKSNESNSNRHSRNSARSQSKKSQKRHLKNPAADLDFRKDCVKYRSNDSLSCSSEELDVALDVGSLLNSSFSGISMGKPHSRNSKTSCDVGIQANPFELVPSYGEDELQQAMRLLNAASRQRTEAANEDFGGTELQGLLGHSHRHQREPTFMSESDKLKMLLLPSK
The assay can be described thus: staining of transfected cells exposed to the ligand. The protocol: (§1) Binding assays were conducted to test binding between cells expressing rSmo or dSmo and (1) epitope tagged SHH-N, (2) an IgG-SHH-N chimera, and (3) an epitope tagged Desert HH. For visualization of SHH binding, COS-7 cells (Genentech, Inc.) transiently expressing rSmo or mPatched (murine Patched) were exposed to epitope tagged SHH-N (2 hours at 4° C.), washed 4 times with PBS, then fixed and stained with a cy3-conjugated anti-human IgG (Jackson ImmunoResearch) (for IgG-SHH-N) or anti-Flag M2 antibody (Kodak/IBI) (for Flag-tagged SHH-N).

For assay [2], the target named is T2, rat Smoothened (rSmo), Flag epitope tagged, expressed on transfected cells (rat, UniProt P97698 33-793).
T2 construct: residues 33-793 derived from that statement; Transiently expressed in COS-7 or 293 cells; co-immunoprecipitations were done from cell lysates; also called Flag tagged rSmo
The description is as above. The procedure: as §1

T2 sequence (P97698 33-793): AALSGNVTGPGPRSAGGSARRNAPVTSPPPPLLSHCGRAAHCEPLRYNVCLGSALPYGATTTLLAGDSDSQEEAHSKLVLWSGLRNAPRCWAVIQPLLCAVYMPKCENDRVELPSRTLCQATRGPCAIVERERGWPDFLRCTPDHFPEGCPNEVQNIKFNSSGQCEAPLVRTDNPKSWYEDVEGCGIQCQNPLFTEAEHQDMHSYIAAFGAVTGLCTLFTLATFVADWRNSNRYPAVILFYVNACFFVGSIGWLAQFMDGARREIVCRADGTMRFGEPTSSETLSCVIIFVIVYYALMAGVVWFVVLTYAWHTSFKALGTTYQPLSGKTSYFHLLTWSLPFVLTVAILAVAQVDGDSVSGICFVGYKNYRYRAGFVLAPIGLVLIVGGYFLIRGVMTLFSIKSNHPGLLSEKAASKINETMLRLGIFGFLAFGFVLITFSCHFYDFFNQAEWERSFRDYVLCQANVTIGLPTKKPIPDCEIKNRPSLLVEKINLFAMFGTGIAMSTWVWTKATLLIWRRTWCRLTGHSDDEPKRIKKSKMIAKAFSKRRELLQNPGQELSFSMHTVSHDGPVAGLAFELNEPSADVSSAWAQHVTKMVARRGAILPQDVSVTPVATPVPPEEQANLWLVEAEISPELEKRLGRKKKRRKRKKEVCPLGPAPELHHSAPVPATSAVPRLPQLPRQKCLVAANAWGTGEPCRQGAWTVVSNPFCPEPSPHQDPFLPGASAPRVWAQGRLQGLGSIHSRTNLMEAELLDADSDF

B1: epitope tagged Desert HH (ligand, not shown: small tags and cut ends)
chain: not shown
On to B1, for which the binding result in assay [1] and in assay [2] was “no binding” each time.
